Data on one molecule can be found in paper PMC2528289.

The test concerns the target T1, FliI, flagellar ATPase, full-length protein released from GST-FliI by thrombin (S. typhimurium SJW1103), P26465.
T1 chain: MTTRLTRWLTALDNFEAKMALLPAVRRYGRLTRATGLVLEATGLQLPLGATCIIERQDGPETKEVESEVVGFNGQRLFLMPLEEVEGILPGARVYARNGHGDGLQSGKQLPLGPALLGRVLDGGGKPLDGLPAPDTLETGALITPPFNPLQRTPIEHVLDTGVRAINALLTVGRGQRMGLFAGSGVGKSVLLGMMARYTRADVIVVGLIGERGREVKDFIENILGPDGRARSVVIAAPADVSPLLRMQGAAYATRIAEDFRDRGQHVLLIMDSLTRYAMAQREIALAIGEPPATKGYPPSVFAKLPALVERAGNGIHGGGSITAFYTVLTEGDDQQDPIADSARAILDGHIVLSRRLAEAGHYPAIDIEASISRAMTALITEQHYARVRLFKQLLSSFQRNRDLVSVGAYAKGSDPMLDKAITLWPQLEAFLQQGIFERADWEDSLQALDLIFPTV
Briefly: negative-stain electron microscopy with single particle analysis. The note with it: remark: other sources report otherwise.

B1: FliI, flagellar ATPase, full-length protein released from GST-FliI by thrombin, P26465 1-456 (enzyme)
chain: MTTRLTRWLTALDNFEAKMALLPAVRRYGRLTRATGLVLEATGLQLPLGATCIIERQDGPETKEVESEVVGFNGQRLFLMPLEEVEGILPGARVYARNGHGDGLQSGKQLPLGPALLGRVLDGGGKPLDGLPAPDTLETGALITPPFNPLQRTPIEHVLDTGVRAINALLTVGRGQRMGLFAGSGVGKSVLLGMMARYTRADVIVVGLIGERGREVKDFIENILGPDGRARSVVIAAPADVSPLLRMQGAAYATRIAEDFRDRGQHVLLIMDSLTRYAMAQREIALAIGEPPATKGYPPSVFAKLPALVERAGNGIHGGGSITAFYTVLTEGDDQQDPIADSARAILDGHIVLSRRLAEAGHYPAIDIEASISRAMTALITEQHYARVRLFKQLLSSFQRNRDLVSVGAYAKGSDPMLDKAITLWPQLEAFLQQGIFERADWEDSLQALDLIFPTV
For B1, the stoichiometry N (in general, the number of molecules, sites or subunits per partner or assembly) turned out to be 6.
